Experiments:
[1] = biological target: 3.L2 TCR; assay: bond lifetime vs force measurement (method not named for this panel); conditions: solid fitted curve (TCR-pMHC-II model) read at force = 10 pN; TCR on CD4-CD8+ naive T cells; parent: est. 2.3; read off a plot
[2] = biological target: K5:I-E^k (UniProt P04230); assay: BFP force-dependent bond lifetime measurement; conditions: solid fitted curve (TCR-pMHC-II model) read at force = 10 pN; TCR on hybridomas; parent: est. 1.6; read off a plot
Sequence of UniProt P04230 (P04230 whole entry, looked up): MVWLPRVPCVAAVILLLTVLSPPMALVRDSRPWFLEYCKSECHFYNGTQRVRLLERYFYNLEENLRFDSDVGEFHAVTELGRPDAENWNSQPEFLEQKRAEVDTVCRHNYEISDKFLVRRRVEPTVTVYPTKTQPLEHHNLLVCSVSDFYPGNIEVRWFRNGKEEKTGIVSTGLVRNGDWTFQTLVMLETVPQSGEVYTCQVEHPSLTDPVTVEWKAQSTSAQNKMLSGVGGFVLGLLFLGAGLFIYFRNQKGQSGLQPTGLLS

Hb:I-Ek T72
other: bond lifetime [1]: 1.1 s

hybrid 2B4 TCR with its mouse Vαβ fused with the Cαβ of the human LC13 (WT) (from UniProt P01848) β:G182A; β:K183A
other: bond lifetime [2]: 1.3 s

hybrid 2B4 TCR with its mouse Vαβ fused with the Cαβ of the human LC13 (WT) (from UniProt P01848) β:H221A; β:N222A
other: bond lifetime [2]: 0.38 s

hybrid 2B4 TCR with its mouse Vαβ fused with the Cαβ of the human LC13 (WT) (from UniProt P01848) β:N222A; β:P223A
other: bond lifetime [2]: 2.2 s

hybrid 2B4 TCR with its mouse Vαβ fused with the Cαβ of the human LC13 (WT) (from UniProt P01848) β:N225A; β:H226A
other: bond lifetime [2]: 0.15 s

— article PMC10163261
